According to US20200095340A1:
Where a chain is given by its changes, count along the chain named. Numbers in names are those of the source.

B1: anti-DLL3 trispecific protein, DLL3 binder 2E02 (protein, part only; not given: anti-CD3 fragment and anti-albumin domain, part only)
chain, part: EVQLVESGGGLVQPGGSLTLSCVASGSTSAINAMGWYRRAPGKQRELVAGISSDGSKVYVDSVKGRFTISRDNAKNSVYLQMNSLRAEDTAVYYCYYFRTVSGSSQRYWGQGTLVTVSSGGGGSGGGSGGGGSGGGSHHHHHH
B2: anti-DLL3 trispecific protein, DLL3 binder 2E05 (protein, part only; not given: CD3 binder and albumin binder, part only)
chain, part: B1 chain, part with T28P, A30S, M34Y, V60S, Q106M, R107S
B3: anti-DLL3 trispecific protein, DLL3 binder 1A011 (protein, part only; not given: anti-CD3 fragment and anti-albumin domain, part only)
chain, part: B1 chain, part with A30S, M34I, V60I, Q106Y
B4: anti-DLL3 trispecific protein, DLL3 binder 2H02 (protein, part only; not given: anti-CD3 fragment and anti-albumin domain, part only)
chain, part: B1 chain, part with A30S, G35A, V48A, V60A, R99H, Q106M
B5: anti-DLL3 trispecific protein, DLL3 binder 1H012 (protein, part only; not given: CD3 binder and albumin binder, part only)
chain, part: B1 chain, part with A30S, Q106M, R107P
B6: anti-DLL3 trispecific protein, DLL3 binder 3A02 (protein, part only; not given: CD3 binder and albumin binder, part only)
chain, part: EVQLVESGGGLVQPGGSLTLSCAASGSSVSFLSLAWYRQAPGKKRELVAGISADGSTAYIDSVKGRFTISRDNAKNSVYLQMNSLRAEDTAVYYCYAYRWRTRYTYWGQGTLVTVSSGGGGSGGGSGGGGSGGGSHHHHHH
B7: anti-DLL3 trispecific protein, DLL3 binder 4D09 (protein, part only; not given: anti-CD3 fragment and anti-albumin domain, part only)
chain, part: B6 chain, part with S30K, L34M, A58D, D61L, R99E, R101T
B8: anti-DLL3 trispecific protein, DLL3 binder 3C04 (protein, part only; not given: CD3 binder and albumin binder, part only)
chain, part: B6 chain, part with S28H, L34M, S56P, A58D, R101D
B9: anti-DLL3 trispecific protein, DLL3 binder 3A011 (protein, part only; not given: anti-CD3 fragment and anti-albumin domain, part only)
chain, part: B6 chain, part with A53T, A58D
B10: anti-DLL3 trispecific protein, DLL3 binder 4H011 (protein, part only; not given: CD3 fragment and albumin sdAb, part only)
chain, part: B6 chain, part with F31R, L34M, A53V, A58D, R101T, Y104L
B11: anti-DLL3 trispecific protein, DLL3 binder 2E05-M106Y (protein, part only; not given: CD3 binder and albumin binder, part only)
chain, part: B1 chain, part with T28P, A30S, M34Y, V60S, Q106Y, R107S
B12: anti-DLL3 trispecific protein, DLL3 binder 2C04 (protein, part only; not given: CD3 fragment and albumin sdAb, part only)
chain, part: B1 chain, part with A30S, I31R, V58L, V60A, S102L, Q106M
B13: anti-DLL3 trispecific protein, DLL3 binder 2E011 (protein, part only; not given: anti-CD3 fragment and anti-albumin sdAb, part only)
chain, part: B1 chain, part with A30S, M34I, K57S, V60A, T100R, Q106M
B14: anti-DLL3 trispecific protein, DLL3 binder 2E05-M106Q (protein, part only; not given: CD3 binder and albumin binder, part only)
chain, part: B1 chain, part with T28P, A30S, M34Y, V60S, R107S
B15: anti-DLL3 trispecific protein, DLL3 binder 4D09-M34L (protein, part only; not given: anti-CD3 fragment and anti-albumin sdAb, part only)
chain, part: B6 chain, part with S30K, A58D, D61L, R99E, R101T
B16: anti-DLL3 trispecific protein, DLL3 binder 3H011 (protein, part only; not given: CD3 binder and albumin binder, part only)
chain, part: B6 chain, part with S30K, L34M, A58V, R101P
B17: anti-DLL3 trispecific protein containing 2E05-M106Q (protein, part only; not given: CD3 binder and albumin binder, part only)
chain, part: B1 chain, part with T28P, A30S, M34Y, V60S, R107S
B18: anti-DLL3 trispecific protein containing 1H012 (protein, part only; not given: anti-CD3 fragment and anti-albumin sdAb, part only)
chain, part: B1 chain, part with A30S, Q106M, R107P
B19: anti-DLL3 trispecific protein containing 4D09-M34L (protein, part only; not given: anti-CD3 fragment and anti-albumin sdAb, part only)
chain, part: B6 chain, part with S30K, A58D, D61L, R99E, R101T
B20: anti-DLL3 trispecific protein containing 4H011 (protein, part only; not given: CD3 binder and albumin binder, part only)
chain, part: B6 chain, part with F31R, L34M, A53V, A58D, R101T, Y104L
B21: anti-DLL3 trispecific protein containing 4A010 (protein, part only; not given: anti-CD3 and anti-albumin domains, part only)
chain, part: B6 chain, part with S30R, L34M, A58V, R101T, T105K
B22: anti-DLL3 trispecific protein containing 4H05 (protein, part only; not given: CD3 binder and albumin binder, part only)
chain, part: B6 chain, part with F31R, L34M, D54R, A58D, R101T, Y104S

Target: cynomolgus DLL3 protein (cynomolgus)
Sequence (chain, as listed by the source): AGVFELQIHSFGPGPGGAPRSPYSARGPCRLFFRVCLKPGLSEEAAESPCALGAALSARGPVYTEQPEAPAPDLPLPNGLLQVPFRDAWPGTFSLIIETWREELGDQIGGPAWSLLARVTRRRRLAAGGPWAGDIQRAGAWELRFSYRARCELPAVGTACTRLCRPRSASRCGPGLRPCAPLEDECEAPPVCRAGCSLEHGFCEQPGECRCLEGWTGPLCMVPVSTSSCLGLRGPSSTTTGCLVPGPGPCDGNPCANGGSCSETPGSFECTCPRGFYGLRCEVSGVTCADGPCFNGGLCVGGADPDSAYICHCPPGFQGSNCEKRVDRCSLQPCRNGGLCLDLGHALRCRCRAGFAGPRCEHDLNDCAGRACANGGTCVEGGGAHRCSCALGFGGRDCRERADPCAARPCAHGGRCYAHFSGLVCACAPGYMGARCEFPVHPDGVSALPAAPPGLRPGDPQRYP
Assay: Octet, single concentration of trispecific (60 nM), cynomolgus DLL3

Kd [nM] | Binder
3.4 | B1
4.8 | B2
3.6 | B3
5.2 | B4
4.3 | B5
9.5 | B6
8.2 | B7
5.7 | B8
8.8 | B9
5.7 | B10

Target: biotinylated human DLL3 protein expressed as a human IgG1 fusion protein (human) (UniProt Q9NYJ7)
Sequence (Q9NYJ7 27-492): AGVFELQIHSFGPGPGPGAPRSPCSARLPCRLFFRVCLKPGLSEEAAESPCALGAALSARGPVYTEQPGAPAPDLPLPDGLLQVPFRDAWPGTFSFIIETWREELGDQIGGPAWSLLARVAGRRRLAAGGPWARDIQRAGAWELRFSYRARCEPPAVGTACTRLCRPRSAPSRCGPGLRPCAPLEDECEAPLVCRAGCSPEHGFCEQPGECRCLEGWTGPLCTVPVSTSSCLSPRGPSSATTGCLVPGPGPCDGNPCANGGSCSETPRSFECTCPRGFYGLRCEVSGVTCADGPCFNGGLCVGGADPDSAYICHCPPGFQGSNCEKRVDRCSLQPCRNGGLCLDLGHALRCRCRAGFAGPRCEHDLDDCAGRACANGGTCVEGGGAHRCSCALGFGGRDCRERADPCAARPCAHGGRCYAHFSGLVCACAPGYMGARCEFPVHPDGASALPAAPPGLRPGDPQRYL
Assay: Octet, several concentrations of trispecific (60, 20, 6.67, 2.22 nM), human DLL3

Kd [nM] | Binder
4.4 | B1
3.5 | B2
3.5 | B3
4.4 | B4
2.9 | B5
7.8 | B6
8.1 | B7
4 | B8
7.3 | B9
3.9 | B10

Target: human DLL3 on DMS-153 cells (human) (UniProt Q9NYJ7)
Sequence (Q9NYJ7 27-618 limits assumed): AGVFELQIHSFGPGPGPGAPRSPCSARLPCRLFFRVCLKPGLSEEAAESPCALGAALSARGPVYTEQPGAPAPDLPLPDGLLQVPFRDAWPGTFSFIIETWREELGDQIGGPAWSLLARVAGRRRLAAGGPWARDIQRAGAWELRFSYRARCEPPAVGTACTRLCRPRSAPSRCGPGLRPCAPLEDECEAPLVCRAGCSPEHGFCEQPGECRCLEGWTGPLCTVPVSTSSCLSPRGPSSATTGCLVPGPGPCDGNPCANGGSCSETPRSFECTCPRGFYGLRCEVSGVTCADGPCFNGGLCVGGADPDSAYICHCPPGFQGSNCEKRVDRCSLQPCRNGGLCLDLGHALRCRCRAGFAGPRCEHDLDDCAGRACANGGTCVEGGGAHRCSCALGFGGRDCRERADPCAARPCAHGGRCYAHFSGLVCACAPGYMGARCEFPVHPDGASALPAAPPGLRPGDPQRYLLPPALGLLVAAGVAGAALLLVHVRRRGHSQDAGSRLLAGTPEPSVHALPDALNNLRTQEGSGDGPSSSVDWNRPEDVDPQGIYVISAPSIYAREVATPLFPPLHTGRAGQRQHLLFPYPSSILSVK
Assay: cell-based or functional assay

DMS-153 TDCC EC50 (conditioned medium, human T cells) [nM] | TDCC EC50 (CHO expressed, purified protein; method of Example 2, DMS-153 cells) [nM] | Binder
0.059 | 0.12 | B1
0.033 | 0.072 | B2
 | 0.063 | B11
0.051 | 0.17 | B3
 | 0.043 | B12
0.031 | 0.096 | B4
0.19 |  | B13
0.028 | 0.063 | B5
 | 0.041 | B14
 | 0.054 | B15
0.052 | 0.06 | B7
0.052 |  | B8
0.12 |  | B16
0.036 |  | B10

Target: human DLL3 on DLL3 expressing cancer cell lines (human) (UniProt Q9NYJ7)
Sequence (Q9NYJ7 27-618 limits assumed): as above
Assay: cell-based or functional assay

TDCC EC50, DMS-153 cells, purified CHO protein [nM] | fold more potent in TDCC than DH43 [fold] | TDCC EC50, DMS-153 cells [nM] | fold increase in TDCC potency over DH43 [fold] | fold more potent in TDCC than DH6 [fold] | fold increase in TDCC potency over DH6 [fold] | Binder
41 | 6.6 |  |  |  |  | B17
 |  | 28 | > 7 |  |  | B18
54 |  |  |  | 4.4 |  | B19
 |  | 36 |  |  | > 8 | B20

Target: biotinylated version of human DLL3 protein expressed as a human IgG1 fusion protein (human) (UniProt Q9NYJ7)
Sequence (Q9NYJ7 27-492 limits assumed): as the sequence (Q9NYJ7 27-492) above
Assay: Octet BLI, biotinylated DLL3-IgG1 on streptavidin tips, single 50 nM

Kd [nM] | Binder
2.3 | B21
64 | B22
